Key:
Type in all cases: biochemical, Quillaja saponaria
[1] = Experiment 6-1: specificity of rhamnosidases towards other rhamnose residues (C3 saccharide rhamnose, C28 saccharide rhamnose); conditions: TBE 2%, pH 7.5, 30 degC, 18 h; LCMS/MS; negative controls 0.18, 0.17
[2] = Experiment 6-1: screening of rhamnosidases for derhamnosylation of saponins in treated bark extract (2%), QS-17 2310 to QS-18 2164 (PAR %); conditions: TBE 2%, pH 7.5, 30 degC, 18 h; TIC peak area ratio percent, LCMS/MS; negative controls 3.061, 2.429
[3] = Experiment 6-1: screening of rhamnosidases for derhamnosylation of saponins in treated bark extract (2%), desglucosyl-QS-17 2134 to QS-21 1988 (PAR %); conditions: TBE 2%, pH 7.5, 30 degC, 18 h; TIC peak area ratio percent, LCMS/MS; negative controls 2.719, 2.158
[4] = Experiment 6-1: screening of rhamnosidases for derhamnosylation of saponins in treated bark extract (2%), QS-17 2296 to QS-18 2150 (PAR %); conditions: TBE 2%, pH 7.5, 30 degC, 18 h; TIC peak area ratio percent of rhamnosylated starting saponin to derhamnosylated product, LCMS/MS; negative controls 4.876, 5.225

Molecule | ratio PP/QS-21 [1] | Peak57 (PAR %) [2] [%] | Peak75 (PAR %) [3] [%] | QS-17 (PAR %) [4] [%]
1004 (protein, Bifidobacterium moukalabense) METQVIKPIAVGDLQITRFTIEHFPGDALGIPTATPRMNWTYSRAVPDGSQILLKISRRVPGSPAKEECTYLPPEDNVLVPWQFTPLASREEVFATVQLVSAAHKPLSDPSATLHFEAGLMQEYEHVADFVGPSWAEPETDHRHLPLIRTEIAIKAKPKRARLYLSALGLVEAEINGVKIGNDALIPGWTNYEQRVQCWTYDVTGELNEGANAMGFWLGDGWYRGRLGFDGGYVNYYGDRLGVFAQLEVEYEDGGIEHVYSNAWDRQWKASLGPIVCSDLCEGERYDARLEQPGWSEPGFDDSSWKPVAEIFYDPAKIENPDTSPVRAQEINEPVSITRTGDTPDGRGIWLVDFGQNCTQRIHLHVKGLEAGQSVELHHVEVLEPNGEIATRTLRRGQQHDIYTSNGTDAWWEPRFAMHGFRYAQIEGVAGELTAADIECHVYHSVMDRAGELETSNPLLNRLHANALWSMRSNFVSVPQDCPQRDERMGWTGDICLFAPTAAYLYDVYGFLKSWLKDVRADQVKWGTVPFYVPFIPLGGWAHPQAISTWGDSAVEVPWVLYMESGDPQILADSYDLSRDWIDEVAGYLSPDGVWDRRPDYVLGQLGDWLDPTAPPDDPTQAMTEKELVATAFFARSCAQAEQIARILGNNEDAVRFGDLRRHVTSGFLARFTNLDGTMTSDTQCAYALAIAFGLLDGEPVRRVKAGNRLAKLVRESGGKVSTGFAGTPFVLPALTMTGHNEEAYGLLLSEECPSWLYQVKMGATTTWERWDSMRPDGSLNPGGMTSFNHYALGSVAEWMHAHIGGLEAIEAGWKRFRVAPVIGGGLDHASTSHVTPYGKASVAWKTSAEGVELDVTVPIGATAVVELPDHEPTELAGGTHHLVVAL | 0.16 | 2.942 | 2.553 | 5.076
1065 (protein, listed as Chitinophaga pinensis) MRIILTAAFLLITSIVSAQYNAWKGSWITNTEDTTATKAPYLRKTFTLDKKVVSATAYVAGVGYHIVFVNGKPVTDAVLEQAYTRYDKRLLYKVYDVTALLSRKGTQSIAAELGNGWYNIQSHAVWGFQNAPWRKTPRLLLDLVIRYDDGTTETIATDNSWKCATGPSQFNCLYSGEIYDARQEVAGWNQTAFNDAGWKQVLLTSSPGGALHEQIMPSIKVIRRIKPVSMKNLGNGKYLFDMGQNFAGVATLNVKGQAGTKVTMYYGEVLKNGELDMVHNTEHMRSMPGELRFQTDVYFLKGGAREVFTPRFVYHGFQYVQIETDQPLELNVHSLEGLFYSTAFEEAGHFTSSDPMINKLYEAARQSYRSNFLSIPTDCPQREKNGWTADAHISTEIGLWNYQTTEGYRKWLHDVRDAQLPSGAMPGIAPSNGWGYDRPGNEEFTFGPAWGSALGFVTWYMYLYHNDTALVREHYDAFKKYTDAVAKGAEGYLFKHGLDDWMSLVKTPMPLTSTAYFYTDAELVAKMARVLGNKADEQTYSRLADSIRAAFNRTYFDANTGVYKDSTMTALSAAVFHGLASPEAAAKTAAQLSSKVQRSNYHADFGVMGTKYVLPTLSDYGYADVAFRMLTDTGYAGWAHWIANGATTLFEDWPGELSHNHIFFGDYCAWYYKTLAGIRPDEAAPGFQHFYIQPAFVKALNFVKADYASSAGMIKVEWKRKGNSIKLSVEIPSRATVRLPAGMTDDKNATRITLNGQQFDQVVLTPGKYTFNLK | 0.17 | 3.194 | 2.458 | 5.015
1020 (protein, listed as Rhodonellum psychrophilum) MKSLSKILTTVTLLLAVFACEKKPAEIVLFSMMDGVEGLSGKTEYLASPYVTAGDRVYMVGHQDGSFPDLGWHVEGEMGGIWNHPIKLMDGFTNAIEIEGNRFCLDNASAFINYPFANKHEFKNSVPGLEVERFQFVPDGKQGLVIEYLFKNVDKSKKSFVFEFDGHTDLMPVWLGDRAGMIDHVDNLVFDDQRQAWRGKDEGNEWYVLFGANQTASHSQGDSSLCNYFPQGKGKSAKLSYEMELSANGEGSLKFFIAGSYSGLDDVQKTFDLIKTHPETFLKDKRTNYDRIASLSKITIPDKELEKTFEWVKYNTEWLVRDIPEVGRGLGAGMPDYPWWFGVDNEYTLKGAIATGRKDLVYATVDLIHKLSVQENDNGKIVHEVSTNGVVFNPGNINETPQFASLIWYVYQWTGDKAFLEKYYPTIKKGLVWLMEENDKDGNLFPDGYGMMEIHGLESEMIDVAVYTQKAFADAAQMALLMAEPEVARSYQQTADLMKAKINTDFWVESANSYADFIGTAAETFPLVDAAIIRADTLGKPWAVEELKLLRKKLSTYPRNKKQGFVLFHNWVVNTPMEMGIADPEKAIKALDKGSKFVNPFGVFVTGIDRDEASQSEDGSFTGSKVFSYTGAVMTLPTGVQAISENNYGRPDQALAYLQMMVKSFGFALPGSIYEVSPDYGMMAQAWNLYSFGVPIVTQFFGIQPDAGNKVIHISTQMPSDWDSAKIEKVLIGDNVLTLSFLRVEGEIQLQINQTKGDWQIDFVFPTGKYNVWKVGGKEVEKTRVGNQEVFRTSGTSISASFK | 0.17 | 3.288 | 2.360 | 5.058
1012 (protein, Bacteroides thetaiotaomicron) MKSRLKQQIFAISLLACTAISPANALQTHLLREQFQNPSDEAKPWTFWYWMFGAVSKEGITADLEAMKRAGLGGTYLMPIKGIKEGPQYNGKAQQLTPEWWEMVRFSMEEADRLGLKLGMHICDGFALAGGPWMTPKESMQKIVWSDTIVDGGKIKGLHLPQPEAYEGFYEDISLFALPVKEEAADVMPAQITCANIATGNHIDIKKTVNMDDAGVIRSSYPCYIQYEYEQPFTCRNIEIILSGNNYQAHRLKVMASDDGVNYRLVKQLVPARQGWQNTDENSTHAIPATTARYFRFYWTPEGSEPGSEDMDAAKWKPNLKIKELRLHREARLDQWEGKAGLVWRVASSTKKEEIGEQDCYALSQIINLTDPFKNSPSDNFKERTLTATLPKGKWKLLRMGHTATGHTNATAGGGKGLECDKFNPKAVRKQFDNWFAQAFVKTNPDVARRVLKYMHVDSWECGSQNWSDTFAAEFRKRRGYDLMPYLPLLAGIPMESAERSEKILRDVRTTIGELVVDVFYQVLADCAKEYDCQFSAECVAPTMVSDGLLHYQKVDLPMGEFWLNSPTHDKPNDMLDAISGAHIYGKNIIQAEGFTEVRGTWNEHPGILKALLDRNYALGINRLFFHVYVHNPWLDRKPGMTLDGIGLFFQRDQTWWNKGAKAFCEYITRCQSLLQYGHPVADIAVFTGEEMPRRSILPERLVPSLPGIFGAERVESERIRLANEGQPLRVRPVGVTHSANMSDPEKWVNPLRGYAYDSFNKDALLRLAKAENGRMTLPGGASYKVLVLPLPRPMNPDPAALSPEVKQKINELKEAGILIPSLPYKEDDFSSYGLERDLIVPENIAWTHRQGEQGDIYFIANQLEETRTFTASMRIDGRKPECWNPVTGEINADIPYEQKSHRTEITLTLAPNESVFIVYPAEEDDKETSEKERKEKKDSVKEASETGLEATEYTVTFTANGKTIQRQELFDWSKEEDEQIRYYSGTAVYKTTFRWKSKVKEDQQVYLNLGKVCDLATVRVNGIDCGTIWTAPYRADITAALKKGVNELEIEVTNTWANALKGADEGKAPFDGIWTNAKYRRAENTLLPAGLLGPLNFDVANKNK | 0.16 | 3.249 | 2.610 | 5.068
991 (protein, Spirosoma linguale) MKFARLNTLTVWLITSFITVSFTISEAISADLTPVNLRTEYKRNPVVDVDKPRLSWELTATGRGQIQTAYQILVASSAALLNAEKADLWQSAKVAGNATNQIEYSGKTLLSRTVCYWKVRSWDKNGQPGPWSAVATWEMGLLTKADWKADWIGNDLTALGKGKTYHLPPSPFFRKEIQLTAPVKKARLYVTSLGLYEYQINGKRIGNDYFTPGWTDYNKRVYYQTYDVTADVKPGKNALGAILADGWYAGYLGYALLVGNPVVKNFYGNVPLLKAQLEIEYTNGKTETIATDQSWKTSHGPILEADILNGETYNANLAFDNWSKTGFNDAGWKNSTIFPDKPDRQLEAYPGNPVRVFQELKAKTVTPKAGGHYLFDLGQNFAGMVRLRVKGNKGDTIRLRFGEVLFPNGDIMTENLRKARATDTYILKGDPQGETWTPKFTYHGFQYVDVAGFKSAPGLDAITGIVLTSATPETGSFETDNKLINKLYQNIVWTQRSNYVEVPTDCPQRDERLGWTGDAQAYVQSATFNNDISAFFTKWLVDLNDAQRPDNAYPIYAPAPNVRKTDTYSPGWSEAGIICPYTIYKTYGDTRVIQKFWPNMVAYLKFMEAKSQGTYVYKEGSFAEVSPKGGFGDWLSVGKKTPPDMLATLYFGYAASMMADMAKAIGKPDEATYYTTMFTKIKQAFRAHYTDETGRFKTNSAAYGNGEGYVDGEMGFEGHTQTAYANAIYMNMIAPDLTPKAGNWLVDLIKANDNKLSTGFLGVKPLLPSLSMTGHSNEAYKLLLSTEYPSWGFEVVNGANTIWERWNSYIKGKGFENNAGMNSFNHYAFGSVNEWLFGNAAGIKAAEAGYRTFIIRPELAPQGINFVNASYRSINGTIVSSWKKEGNRVRMKVVVPANTTATVFIPITKPDSVLESNKALTASQDIRVIGARDGYLQVTVGSGTYQFSAVN | 0.17 | 3.443 | 2.453 | 5.084
1028 (protein, listed as Formosa agariphila) MKYNKLLFSLLLLAVFCFSCKEEQKLQTSLDFDKVLLNAKSNPIAIESESPLFSWIIKAEGFGKSQSAYHILVASSLDKLDETHADVWNSNKVESSKSTFVKYEGKELKAATRYYWKVKVWDKSNQESNWSEPQYFQMGLLDESNWGEAKWITLTNDTRTSEYRFREYKTGRMEQPIQVDGFAASYFRNKINLNKEVDNAQVYICGLGYYEFFLNGEKVGDHVLDPAPSNYDKQAYYVNYDITEQLNSGENALGIILGNGFYGQNISWKNDPESDRDLAYGPPTVRVLLKLKYKDGTESEFFSDETWKESTGPIVFNNIYGGDTYDARFELGDWTSTNYDDSSWGFAKETAPEIKNISAQQIPAIKKLQDYEPQNVFKGSDGEWIVDFGQNIAGWVKLNVSEKEGQLIEVITTEALLTNGRDIFPGSTGGGANGMAQIYQYICKGDGQESWEPKFSYHGFRYAKIKGVSTKPDADMIKAVLVATDIQETGSFECSDDLFNKMHNISKWTIVDNVHGIPEDCPHREKCGWLGDAHAFCEYALYNYDMYDFYKKYMEDIRTQMLPTKGHNNPELKFQVPTMIAPGKRTSSYAKIDWGVATMYLPWYNYLYYGDDAIVNEYYPEMKDLTNFYLNFKGENGIMQDGMGDWCPPRWDRRTNPEAMECDPIISANAYFYDVLGIMETFAKMNNDGAFQSEMKAEKEALKDAFNKAFLVEIPNTDFKWYQSQTATVQALQFGMVPEEEIENVVNGLEYDIVEVKGGHHSTGIHGNRYIYTVLSKYGKADLAYRILTTPDFPSQTYIMNSGFTTWPERQFEWETMEGPTNSLNHPMHSGFSAYFFESLGGIKSSTKEAGYKQFIVNPEFPSQITQTKVSVPTPYGDIKNDWSFEEGKLSMTLEIPFNTEANLVLNQAELESLIINGKTFQNLQKNTKSVTLQGSNVILGSGKYKILYNKR | 0.15 | 1.993 | 2.885 | 5.081
